Target: SARS-COV-2 spike [change] trimer ([change]-foldon-His-Strep) (SARS-CoV-2 (Wuhan)) (UniProt P0DTC2)

VHH72-S56A
IC50 (read off the curve): 0.6 µg/mL

Source: patent US20250313611A1
